We go through one substance from patent US20020076785.

“Also recorded” adds a separate entry of the source.

Data set [1] has as its target recombinant C. elegans Cdc42 (UniProt Q05062).
The target of data set [2] is recombinant C. elegans Rho (UniProt Q22038).
Data set [3] has as its target recombinant C. elegans Rac (UniProt Q03206).

Sequence of recombinant C. elegans Rho (Q22038 whole entry): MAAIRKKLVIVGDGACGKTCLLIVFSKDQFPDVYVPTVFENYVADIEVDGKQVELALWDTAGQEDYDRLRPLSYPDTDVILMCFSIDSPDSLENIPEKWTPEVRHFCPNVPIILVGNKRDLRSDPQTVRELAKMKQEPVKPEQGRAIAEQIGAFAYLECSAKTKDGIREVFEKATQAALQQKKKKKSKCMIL
Sequence of recombinant C. elegans Cdc42 (Q05062 whole entry): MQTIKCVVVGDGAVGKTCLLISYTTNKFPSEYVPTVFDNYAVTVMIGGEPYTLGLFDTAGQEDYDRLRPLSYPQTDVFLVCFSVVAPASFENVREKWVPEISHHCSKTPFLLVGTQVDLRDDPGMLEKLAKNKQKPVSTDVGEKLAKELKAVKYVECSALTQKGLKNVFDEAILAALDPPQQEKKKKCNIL

Regarding “GST-CYK-4-GAP (GST fused to the GAP domain of CYK-4, amino acids 407-681)”, the GTP hydrolysis entry in data set [1] was “The GAP domain of CYK-4 promotes GTP hydrolysis by all three tested GTPases; also recorded: the CYK-4 GAP domain is more active towards Rac and Cdc42 than towards Rho”; in data set [2], “The GAP domain of CYK-4 promotes GTP hydrolysis by all three tested GTPases; also recorded: the CYK-4 GAP domain is more active towards Rac and Cdc42 than towards Rho”; in data set [3], “The GAP domain of CYK-4 promotes GTP hydrolysis by all three tested GTPases; also recorded: the CYK-4 GAP domain is more active towards Rac and Cdc42 than towards Rho”.
